The chains are these.
T1: CD244 extracellular domain fused to a generic transmembrane domain, on tetracycline-inducible FlpIn cells (UniProt Q9BZW8 22-229)
T1 construct: extracellular domain; not shown: transmembrane domain of platelet-derived growth factor (so in the source) with a HA tag
T1 sequence (looked up): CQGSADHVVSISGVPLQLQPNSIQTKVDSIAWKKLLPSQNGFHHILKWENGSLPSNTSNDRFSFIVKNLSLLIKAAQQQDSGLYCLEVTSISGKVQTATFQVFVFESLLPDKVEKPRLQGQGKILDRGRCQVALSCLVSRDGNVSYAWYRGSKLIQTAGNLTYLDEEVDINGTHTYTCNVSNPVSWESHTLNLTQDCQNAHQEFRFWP

T2: TNFSF4 extracellular domain fused to a generic transmembrane domain, on tetracycline-inducible FlpIn cells (UniProt P23510 51-183)
T2 construct: extracellular domain; also called OX40L; not shown: transmembrane domain of platelet-derived growth factor (so in the source) with a HA tag
T2 sequence (looked up): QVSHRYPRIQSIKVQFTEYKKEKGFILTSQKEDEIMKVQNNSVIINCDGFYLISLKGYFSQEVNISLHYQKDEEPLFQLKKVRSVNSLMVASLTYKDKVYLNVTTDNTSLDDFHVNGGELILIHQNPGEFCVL

T3: NCR3 (antigen of the ELISA in the affinity-maturation table) (human, UniProt O14931 19-135, limits assumed)
T3 construct: also called Natural Cytotoxicity Triggering Receptor 3
T3 sequence (looked up): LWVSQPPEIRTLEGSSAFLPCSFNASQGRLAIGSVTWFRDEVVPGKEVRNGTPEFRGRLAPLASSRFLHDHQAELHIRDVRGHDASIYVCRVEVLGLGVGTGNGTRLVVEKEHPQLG

T4: NCR3 on cell (on-cell binding in the affinity-maturation table) (human, UniProt O14931 19-201, limits assumed)
T4 construct: On cell
T4 sequence (looked up): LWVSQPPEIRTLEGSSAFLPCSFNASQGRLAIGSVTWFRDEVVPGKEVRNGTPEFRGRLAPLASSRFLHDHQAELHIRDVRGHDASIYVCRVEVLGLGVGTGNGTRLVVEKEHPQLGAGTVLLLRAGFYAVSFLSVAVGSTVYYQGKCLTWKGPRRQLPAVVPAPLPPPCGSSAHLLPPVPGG

B1: NCR3.18 Fab (Fab)
heavy: EVQLVESGGGLVQPGGSLRLSCAASGFNVSSSSIHWVRQAPGKGLEWVASISSSSGSTSYADSVKGRFTISADTSKNTAYLQMNSLRAEDTAVYYCARRISSYYMSYYDSFYYAGMDYWGQGTLVTVSSASTKGPSVFPLAPSSKSTSGGTAALGCLVKDYFPEPVTVSWNSGALTSGVHTFPAVLQSSGLYSLSSVVTVPSSSLGTQTYICNVNHKPSNTKVDKKVEPKSCDKTHT
light: DIQMTQSPSSLSASVGDRVTITCRASQSVSSAVAWYQQKPGKAPKLLIYSASSLYSGVPSRFSGSRSGTDFTLTISSLQPEDFATYYCQQSSSSLITFGQGTKVEIKRTVAAPSVFIFPPSDSQLKSGTASVVCLLNNFYPREAKVQWKVDNALQSGNSQESVTEQDSKDSTYSLSSTLTLSKADYEKHKVYACEVTHQGLSSPVTKSFNRGEC
notes: also called parental NCR3.18 clone; anti-NCR3 Fab #78
B2: NCR3.18.7 (Fab, V domains shown)
VH: EVQLVESGGGLVQPGGSLRLSCAASGFNVSSSSIHWVRQAPGKGLEWVASISSSSGSTSYADSVKGRFTISADTSKNTAYLQMNSLRAEDTAVYYCARRISSYYISYYDSFYYAGMDYWGQGTLVTVSS
VL: DIQMTQSPSSLSASVGDRVTITCRASQSVSSAVAWYQQKPGKAPKLLIYSASSLYSGVPSRFSGSRSGTDFTLTISSLQPEDFATYYCQQSSSSLITFGQGTKVEIKR
notes: substitutions derived against parental HC3
B3: NCR3.18.6 (Fab, V domains shown)
VH: B2 VH with Y103S, I105M
VL: B2 VL
notes: as for B2
B4: NCR3.18.19 (Fab, V domains shown)
VH: B2 VH with I100V, Y103P, I105M, M116L
VL: B2 VL
notes: as for B2
B5: NCR3.18.8 (Fab, V domains shown)
VH: B2 VH with I105V
VL: B2 VL
notes: as for B2
B6: NCR3.18.1 (Fab, V domains shown)
VH: B2 VH with I100A, Y103R, Y104F, I105R
VL: B2 VL
notes: substitutions derived by comparing with parental HC3
B7: NCR3.18.9 (Fab, V domains shown)
VH: B2 VH with I100K, Y103S, I105W
VL: B2 VL
notes: as for B2
B8: NCR3.18.12 (Fab, V domains shown)
VH: B2 VH with I100R, S101A, I105K, S106T
VL: B2 VL
notes: as for B2
B9: NCR3.18.14 (Fab, V domains shown)
VH: B2 VH with I100T, S101G, I105M, S106T
VL: B2 VL
notes: as for B2
B10: NCR3.18.15 (Fab, V domains shown)
VH: B2 VH with I100T, Y103H
VL: B2 VL
notes: as for B2
B11: NCR3.18.13 (Fab, V domains shown)
VH: B2 VH with I100R, I105M, S106T
VL: B2 VL
notes: as for B2
B12: NCR3.18.10 (Fab, V domains shown)
VH: B2 VH with I100K, I105M
VL: B2 VL
notes: as for B2
B13: NCR3.18.4 (Fab, V domains shown)
VH: B2 VH with Y103H, I105M
VL: B2 VL
notes: as for B2
B14: NCR3.18.3 (Fab, V domains shown)
VH: B2 VH with S101G, Y103I, I105R
VL: B2 VL
notes: as for B2
B15: NCR3.18.17 (Fab, V domains shown)
VH: B2 VH with I100V, S101G, I105M
VL: B2 VL
notes: as for B2
B16: NCR3.18.11 (Fab, V domains shown)
VH: B2 VH with I100L, S101G, Y103R, I105R
VL: B2 VL
notes: as for B2
B17: NCR3.18.18 (Fab, V domains shown)
VH: B2 VH with I100V, Y103N, I105M
VL: B2 VL
notes: as for B2

Substitutions are numbered along the chain they refer to.

T5 sequence (O76036 22-258): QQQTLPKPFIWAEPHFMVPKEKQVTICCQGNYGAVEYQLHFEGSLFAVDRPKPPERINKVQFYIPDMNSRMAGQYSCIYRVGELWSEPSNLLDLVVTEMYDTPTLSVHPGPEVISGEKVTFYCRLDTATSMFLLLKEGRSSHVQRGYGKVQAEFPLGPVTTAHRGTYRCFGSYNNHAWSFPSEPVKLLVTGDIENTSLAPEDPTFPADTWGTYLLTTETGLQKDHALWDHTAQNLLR
T6 sequence (P08637 17-208): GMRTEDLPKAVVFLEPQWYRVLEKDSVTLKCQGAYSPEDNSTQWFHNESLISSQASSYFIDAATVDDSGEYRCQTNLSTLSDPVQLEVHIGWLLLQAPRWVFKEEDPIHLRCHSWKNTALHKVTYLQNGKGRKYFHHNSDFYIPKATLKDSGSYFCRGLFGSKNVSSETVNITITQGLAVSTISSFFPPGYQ

One test has as its target T5, NCR1 extracellular domain fused to a generic transmembrane domain, on tetracycline-inducible FlpIn cells (human, UniProt O76036 22-258).
T5 construct: extracellular domain; HEK293 FlpIn cells, expression on tetracycline addition; also called NCR1 over expression cell line; not shown: transmembrane domain of platelet-derived growth factor (so in the source) with a HA tag
The test can be described thus: flow cytometry, Fab on tetracycline-inducible cell lines over-expressing each ECD (FIG. S5). The method, then: (§1) To investigate the specificity of both activating and non-functional antibodies for their receptor targets, we developed a tetracycline-inducible cell line for each protein target—CD16, NCR1, NCR3, CD244, TNFRSF9, and TNFSF4. The ECDs of these proteins were fused to a generic transmembrane domain and were expressed upon tetracycline addition.
(§2) Titrations were performed on primary human NK cells or tetracycline induced overexpression cell lines as indicated. When tetracycline induced overexpression cell lines were used, cells were dosed with 10 μg/mL tetracycline for 2 days prior to staining. The starting concentration of each Fab or bispecific antibody was 1 μM, and serial 1:5 dilutions were performed. Antibodies were incubated with cells for 1 hr at 4° C., washed 2 times in 3% BSA in PBS pH 7.4, and stained for 30 min with an Alexafluor-647 conjugated goat anti-human IgG F(ab′)2 fragment (Jackson ImmunoResearch Laboratories) at a 1:50 dilution. After an additional 3 washes, cells were fixed and fluorescence was quantified using a CytoFLEX (Beckman Coulter). All flow cytometry data were analyzed using FlowJo software.
(In general: A flow cytometer gives signals particle by particle.)
Regarding B1, the binding result was “no binding”.

A further test concerns the target T6, CD16 extracellular domain fused to a generic transmembrane domain, on tetracycline-inducible FlpIn cells (human, UniProt P08637 17-208).
T6 construct: extracellular domain; HEK293 FlpIn cells, expression on tetracycline addition; also called CD16 over expression cell line; CD16A; not shown: transmembrane domain of platelet-derived growth factor (so in the source) with a HA tag
The test is described as above. The method, then:
as §1, §2
In the case of B1, the binding result is “no binding”.

The next test has as its target T1, CD244 extracellular domain fused to a …. The description is as above. The method, then:
as §1, §2
Take B1: the binding result is listed as “no binding”.

Another test deals with T7, TNFRSF9 extracellular domain fused to a generic transmembrane domain, on tetracycline-inducible FlpIn cells (UniProt Q07011 24-186).
T7 construct: extracellular domain; also called 4-1BB; not shown: transmembrane domain of platelet-derived growth factor (so in the source) with a HA tag
Described as above. The protocol: as §1, §2
With B1, the binding result is given as “no binding”.

A further test concerns the target T2, TNFSF4 extracellular domain fused to a …. The test is described as above. The protocol: as §1, §2
On to B1, for which the binding result is reported as “no binding”.

The target of a further test is T3, NCR3 (antigen of the ELISA in the …). In words: ELISA, Fab on NCR3. Background: ELISA stands for enzyme-linked immunosorbent assay.
As usually defined, the EC50 is the concentration giving half of the maximal effect. The low end stands for greater potency, the high end for weaker potency. B1 registered a 50% effective concentration (EC50) of 1.63 nM.

Consider B2, for which the response was half-maximal at 1.23 nM (EC50). The EC50 values of the last two molecules are within 1.5-fold of each other.

B3 returned an EC50 of 1.38 nM.

Molecule B4 gave a concentration giving a half-maximal response (EC50) of 0.38 nM.

Molecule B5 yielded a concentration for a half-maximal effect (EC50) of 0.95 nM. This EC50 is about 2.5-fold higher than that of the molecule before.

B6 came in with a concentration giving a half-maximal response (EC50) of 0.78 nM.

B7: the EC50 was 0.51 nM.

Turning to B8, a half-maximal effect (EC50) was put at 0.53 nM.

Turning to B9, a half-maximal effect (EC50) was put at 0.57 nM.

Consider B10, for which a half-maximal response (EC50) required 2.98 nM. Against the preceding molecule, the EC50 is about 5.2-fold higher.

As to B11, a half-maximal effect (EC50) was put at 0.98 nM.

As for B12, the EC50 turned out to be 1.11 nM.

Turning to B13, the concentration giving a half-maximal response (EC50) stood at 2.29 nM.

As to B14, the concentration giving a half-maximal response (EC50) came to 0.68 nM.

As to B15, a half-maximal effect (EC50) was put at 0.58 nM.

As for B16, the concentration for a half-maximal effect (EC50) stood at 0.77 nM.

The molecule B17 came in with an EC50 of 2.2 nM.

In the next test the target is T4, NCR3 on cell (on-cell binding in the …). The test can be described thus: on-cell binding, Fab on NCR3.
Consider B1, for which the EC50 stood at 2.27 nM.

As for B2, the EC50 is 3.19 nM.

In the case of B3, a half-maximal response (EC50) required 4.67 nM.

Take B4: a half-maximal response (EC50) required 1.41 nM. Compared with the last molecule, the EC50 is about 3.3-fold lower.

B5 registered an EC50 of 2.74 nM.

B6 showed a 50% effective concentration (EC50) of 2.14 nM.

B7 had a 50% effective concentration (EC50) of 2.24 nM. This EC50 and that of the molecule before are within 1.5-fold of each other.

Molecule B8 gave a 50% effective concentration (EC50) of 2.13 nM.

On to B9, for which the 50% effective concentration (EC50) was found to be 3.11 nM. This EC50 and that of the molecule before are within 1.5-fold of each other.

On to B10, for which the EC50 amounted to 6.76 nM.

Take B11: the EC50 worked out at 2.55 nM.

The molecule B12 yielded a concentration for a half-maximal effect (EC50) of 4.09 nM. Compared with the last molecule, the EC50 is about 1.6-fold higher.

The molecule B13 gave an EC50 of 1.44 nM.

The molecule B14 returned an EC50 of 1.61 nM.

For the molecule B15, the EC50 was 2.11 nM.

Molecule B16 registered a half-maximal effective concentration (EC50) of 1.47 nM.

B17 showed a 50% effective concentration (EC50) of 3.39 nM.

Source of the values: patent publication US20240279331A1 (University of California, published 2024).
